Literature values in article PMC3955120 (Journal of chromatography. B, Analytical technologies in …, 2013).
Where no end group is shown, it is not given here.

Details: humans, i.v. infusion of kisspeptin-54, RIA, monoexponential decline

kisspeptin-54 (GTSLSPPPESSGSPQQPGLSAPHSRQIPAPQGAVLVQREKDLPNYNWNSFGLRF-NH2; ends and bridges not checked; UniProt Q15726 68-121, looked up)
half-life of post steady-state plasma kisspeptin-IR: 27.6 min
